Non-standard residues stand in square brackets, D forms with d. No end group written: not given here.

The test deals with Glucagon-like peptide-1 receptor (GLP1R). The experiment in a line: cell-based or functional assay.

B1: HS-20003 (peptide)
peptide: H[dA]EGTFTSDVSSYLEEEAAKEFIAWLVRGGPSSGAPPPSK
modifications: not fully specified (residue 40); also: palmitoyl on alpha-amino of C-terminal Lys, chain built on its epsilon amino
Take B1: the EC50 (nM), cAMP-response-element luciferase reporter in HEK293 cells with GLP1R stood at 0.000719 nM and the Maximum reaction rate (%) was 87.9%.

The values are drawn from patent publication US20120129768A1.
